Source: patent publication US20110223216A1, “Nanoparticles and Porous Particles and Methods of Making the Same” (WAYNE STATE UNIVERSITY, priority 2008, published 2011)

Experiment: Sedimentation rate / physical stability of micronized drug dispersions in HFA227 with or without chitosan-PLA nanoparticles
Protocol: Sedimentation rate of micronized insulin in HFA 227 were conducted to test the physical stability of dispersions.

[1] = pure (bare) drug particles in HFA227

## insulin
[1]
  creaming of dispersion: creaming out in seconds
  redispersibility: not being redispersible
Pure (bare) drug particles, 2 mg/ml in HFA227, 298K, saturation pressure
  physical stability of dispersion: poor stability
Upon addition of chitosan-PLA nanoparticles (1 or 2 mg/ml), HFA227
  physical stability of dispersion: improved
With chitosan-PLA nanoparticles, HFA227, after storage
  redispersibility: can be redispersed simply by hand-shaking even after several days of storage
